Assay results reported in patent US20050244333A1 (CITY OF HOPE, published 2005).
Substitutions are numbered along the chain they refer to. In names and notes the source's numbering stands. Each block holds one binder with its values, some of them ahead of it.

Tests used:
[1] = target: T1, carcinoembryonic antigen (CEA) (human, UniProt P06731 35-685, biotinylated with EZ-Link Sulfo-NHS-LC-Biotin for the SPR assay); assay: SPR, Biacore 1000; biotinylated CEA on SA chip, antibody injected at 3.12-100 nM, bivalent analyte model
T1 construct: Purified CEA; biotinylated and immobilised on a streptavidin chip for SPR, unlabelled in the immunoreactivity assay; also called purified CEA; CEA-biotin
T1 sequence (looked up): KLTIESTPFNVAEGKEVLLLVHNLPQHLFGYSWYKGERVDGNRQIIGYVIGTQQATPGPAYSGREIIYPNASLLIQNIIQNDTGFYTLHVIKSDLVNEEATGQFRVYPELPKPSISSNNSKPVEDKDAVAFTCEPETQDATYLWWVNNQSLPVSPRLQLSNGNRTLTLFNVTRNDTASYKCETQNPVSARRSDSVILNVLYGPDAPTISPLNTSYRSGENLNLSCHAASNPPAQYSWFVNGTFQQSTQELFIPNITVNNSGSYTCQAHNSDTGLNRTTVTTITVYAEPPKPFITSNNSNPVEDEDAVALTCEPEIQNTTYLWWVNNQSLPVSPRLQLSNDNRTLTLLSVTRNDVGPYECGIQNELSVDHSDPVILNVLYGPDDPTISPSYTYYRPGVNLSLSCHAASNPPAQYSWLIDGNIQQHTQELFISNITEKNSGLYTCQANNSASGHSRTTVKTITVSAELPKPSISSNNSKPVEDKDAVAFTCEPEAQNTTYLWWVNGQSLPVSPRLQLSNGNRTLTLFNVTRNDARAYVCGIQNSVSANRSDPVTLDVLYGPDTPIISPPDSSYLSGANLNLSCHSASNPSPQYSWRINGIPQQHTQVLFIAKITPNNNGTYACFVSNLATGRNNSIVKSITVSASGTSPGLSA
Method: (§1) The binding affinity of the antibodies to purified CEA was determined by surface plasmon resonance (SPR) on a Biacore 1000 (Biacore AB, Uppsala, SW). CEA was biotinylated using the EZ-Link Sulfo-NHS-LC-Biotin kit (Pierce, Rockford, Ill.) and immobilized to a SA biosensor chip (Biacore Inc.) in HBS buffer. A series of increasing antibody concentrations (3.12, 6.25, 12.5, 25, 50, and 100 nM) were injected over a low density (175 RU) of the immobilized CEA-biotin for the association and dissociation phase, with regeneration by a single pulse of 6 M GuHCl. The data were analyzed by BIAevaluation (v3.0) software using the bivalent analyte model to calculate the KA=kₒₙ/koff. Antibody concentrations were determined by amino acid analysis.

[2] = target: T1, carcinoembryonic antigen (CEA); assay: SPR, Biacore 1000; biotinylated CEA on SA chip, antibody injected at 3.12-100 nM, bivalent analyte model; KA = kon/koff
Method: as §1

koff [1]: 3.01e-05 s⁻¹ | kon [1]: 330000 M⁻¹ s⁻¹ | Ka [2]: 1.1e+10 M⁻¹
B1: humanized T84.66 antibody M5A (antibody, V domains shown)
VH: EVQLVESGGGLVQPGGSLRLSCAASGFNIKDTYMHWVRQAPGKGLEWVARIDPANGNSKYADSVKGRFTISADTSKNTAYLQMNSLRAEDTAVYYCAPFGYYVSDYAMAYWGQGTLVTVSS
VL: DIQLTQSPSSLSASVGDRVTITCRAGESVDIFGVGFLHWYQQKPGKAPKLLIYRASNLESGVPSRFSGSGSRTDFTLTISSLQPEDFATYYCQQTNEDPYTFGQGTKVEIK
notes: For the immunoreactivity assay the antibody was labelled with 131I; also called M5A mAb; 131I-M5A

koff [1]: 2.56e-05 s⁻¹ | kon [1]: 488000 M⁻¹ s⁻¹ | Ka [2]: 1.9e+10 M⁻¹
B2: humanized T84.66 antibody M5B (antibody, V domains shown)
VH: B1 VH with A61V, D62P, S63K, V64F, K65Q, F68A
VL: B1 VL
notes: Expressed in NS0 cells as an intact antibody with constant regions of a human IgG and a kappa light chain; For the immunoreactivity assay the antibody was labelled with 131I; also called M5B mAb
